Data reported in US20140235820A1, “METHODS AND COMPOSITIONS FOR MODULATING THE Wnt PATHWAY” (Genentech, Inc., priority 2010, published 2014).
Entries after “also recorded” stand apart in the source; their conditions may differ.

T1: human LRP6 construct E1E4 (amino acids A20-Q1253) (human, UniProt O75581 20-1253, biotinylated for biolayer interferometry)
T1 construct: range 20-1253; Expressed in Tni insect cells; tags not specified for this construct; also called LRP6 E1E4
T1 sequence (looked up): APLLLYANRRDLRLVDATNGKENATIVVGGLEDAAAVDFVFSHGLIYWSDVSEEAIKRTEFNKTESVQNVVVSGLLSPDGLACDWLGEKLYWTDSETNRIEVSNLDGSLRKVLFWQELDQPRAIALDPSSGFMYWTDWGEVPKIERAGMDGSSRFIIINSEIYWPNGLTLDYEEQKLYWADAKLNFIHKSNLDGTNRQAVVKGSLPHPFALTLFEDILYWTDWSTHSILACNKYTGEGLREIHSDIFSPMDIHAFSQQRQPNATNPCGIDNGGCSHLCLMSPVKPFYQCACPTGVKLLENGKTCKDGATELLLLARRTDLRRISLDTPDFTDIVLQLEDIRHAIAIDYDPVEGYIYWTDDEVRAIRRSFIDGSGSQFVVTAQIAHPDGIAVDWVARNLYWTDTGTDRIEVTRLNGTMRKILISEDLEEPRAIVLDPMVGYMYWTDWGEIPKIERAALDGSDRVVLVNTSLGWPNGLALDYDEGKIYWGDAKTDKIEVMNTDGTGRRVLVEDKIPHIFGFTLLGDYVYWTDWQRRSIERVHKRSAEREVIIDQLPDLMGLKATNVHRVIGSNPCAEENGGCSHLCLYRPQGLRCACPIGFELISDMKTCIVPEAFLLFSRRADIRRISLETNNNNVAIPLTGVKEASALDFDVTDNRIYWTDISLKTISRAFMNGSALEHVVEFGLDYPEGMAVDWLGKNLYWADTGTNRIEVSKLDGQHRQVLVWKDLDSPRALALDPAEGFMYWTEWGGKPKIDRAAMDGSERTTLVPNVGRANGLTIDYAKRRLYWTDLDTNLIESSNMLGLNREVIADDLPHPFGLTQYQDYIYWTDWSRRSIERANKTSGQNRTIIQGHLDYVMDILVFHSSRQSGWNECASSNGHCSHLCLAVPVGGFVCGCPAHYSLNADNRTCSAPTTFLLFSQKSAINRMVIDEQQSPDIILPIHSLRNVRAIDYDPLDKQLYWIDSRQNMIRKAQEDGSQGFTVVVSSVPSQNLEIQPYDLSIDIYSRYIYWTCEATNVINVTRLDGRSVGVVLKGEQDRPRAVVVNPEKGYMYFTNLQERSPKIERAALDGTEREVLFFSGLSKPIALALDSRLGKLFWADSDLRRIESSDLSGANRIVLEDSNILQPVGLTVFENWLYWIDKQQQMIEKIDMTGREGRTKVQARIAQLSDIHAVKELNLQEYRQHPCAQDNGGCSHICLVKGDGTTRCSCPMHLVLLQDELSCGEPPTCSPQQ

T2: human LRP6 construct E1E2 (amino acids A20-E631) (human, UniProt O75581 20-631, biotinylated for biolayer interferometry)
T2 construct: range 20-631; also called LRP6 E1E2
T2 sequence (looked up): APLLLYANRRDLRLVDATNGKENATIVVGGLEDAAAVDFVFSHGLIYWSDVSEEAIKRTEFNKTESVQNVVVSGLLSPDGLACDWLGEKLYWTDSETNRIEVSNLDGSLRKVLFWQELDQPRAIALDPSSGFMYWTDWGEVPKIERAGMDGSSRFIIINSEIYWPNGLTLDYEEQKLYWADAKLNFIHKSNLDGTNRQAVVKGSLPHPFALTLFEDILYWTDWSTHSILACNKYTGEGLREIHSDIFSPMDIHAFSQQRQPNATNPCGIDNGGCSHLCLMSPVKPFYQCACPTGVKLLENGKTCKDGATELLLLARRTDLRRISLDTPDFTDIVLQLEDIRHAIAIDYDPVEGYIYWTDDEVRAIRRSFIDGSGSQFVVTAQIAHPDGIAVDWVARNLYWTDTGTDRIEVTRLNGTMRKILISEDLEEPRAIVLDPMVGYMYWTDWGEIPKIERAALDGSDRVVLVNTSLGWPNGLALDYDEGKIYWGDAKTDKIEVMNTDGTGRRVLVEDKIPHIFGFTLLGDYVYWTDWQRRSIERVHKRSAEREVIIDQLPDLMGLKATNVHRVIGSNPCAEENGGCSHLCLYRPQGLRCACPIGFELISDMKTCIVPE

T3: LRP6 E3E4 (Homo sapiens, UniProt O75581)
T3 construct: construct E3E4 amino acids E631-Q1253 of LPR6; made in house; host or cells: Tni insect cells (baculovirus, secreted)
T3 sequence (O75581 631-1253): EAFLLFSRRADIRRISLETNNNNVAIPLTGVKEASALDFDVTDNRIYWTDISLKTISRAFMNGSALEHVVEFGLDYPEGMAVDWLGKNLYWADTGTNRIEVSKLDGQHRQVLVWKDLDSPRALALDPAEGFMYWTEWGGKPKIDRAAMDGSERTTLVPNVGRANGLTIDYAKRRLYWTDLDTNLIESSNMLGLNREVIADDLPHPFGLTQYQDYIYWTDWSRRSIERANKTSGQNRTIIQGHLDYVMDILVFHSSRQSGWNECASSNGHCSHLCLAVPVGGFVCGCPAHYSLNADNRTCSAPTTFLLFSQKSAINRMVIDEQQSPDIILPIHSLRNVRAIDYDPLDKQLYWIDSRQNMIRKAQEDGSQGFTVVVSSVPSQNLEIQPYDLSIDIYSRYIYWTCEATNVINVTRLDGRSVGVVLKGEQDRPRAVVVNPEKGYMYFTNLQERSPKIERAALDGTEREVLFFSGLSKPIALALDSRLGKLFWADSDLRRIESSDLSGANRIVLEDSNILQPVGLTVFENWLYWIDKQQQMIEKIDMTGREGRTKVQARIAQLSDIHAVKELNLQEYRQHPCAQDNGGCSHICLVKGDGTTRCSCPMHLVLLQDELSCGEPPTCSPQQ

T4: LRP6 E1E4 (Homo sapiens, UniProt O75581)
T4 construct: construct E1E4-amino acids A20-Q1253 of LPR6; made in house; host or cells: Tni insect cells (baculovirus, secreted)
T4 sequence (O75581 20-1253): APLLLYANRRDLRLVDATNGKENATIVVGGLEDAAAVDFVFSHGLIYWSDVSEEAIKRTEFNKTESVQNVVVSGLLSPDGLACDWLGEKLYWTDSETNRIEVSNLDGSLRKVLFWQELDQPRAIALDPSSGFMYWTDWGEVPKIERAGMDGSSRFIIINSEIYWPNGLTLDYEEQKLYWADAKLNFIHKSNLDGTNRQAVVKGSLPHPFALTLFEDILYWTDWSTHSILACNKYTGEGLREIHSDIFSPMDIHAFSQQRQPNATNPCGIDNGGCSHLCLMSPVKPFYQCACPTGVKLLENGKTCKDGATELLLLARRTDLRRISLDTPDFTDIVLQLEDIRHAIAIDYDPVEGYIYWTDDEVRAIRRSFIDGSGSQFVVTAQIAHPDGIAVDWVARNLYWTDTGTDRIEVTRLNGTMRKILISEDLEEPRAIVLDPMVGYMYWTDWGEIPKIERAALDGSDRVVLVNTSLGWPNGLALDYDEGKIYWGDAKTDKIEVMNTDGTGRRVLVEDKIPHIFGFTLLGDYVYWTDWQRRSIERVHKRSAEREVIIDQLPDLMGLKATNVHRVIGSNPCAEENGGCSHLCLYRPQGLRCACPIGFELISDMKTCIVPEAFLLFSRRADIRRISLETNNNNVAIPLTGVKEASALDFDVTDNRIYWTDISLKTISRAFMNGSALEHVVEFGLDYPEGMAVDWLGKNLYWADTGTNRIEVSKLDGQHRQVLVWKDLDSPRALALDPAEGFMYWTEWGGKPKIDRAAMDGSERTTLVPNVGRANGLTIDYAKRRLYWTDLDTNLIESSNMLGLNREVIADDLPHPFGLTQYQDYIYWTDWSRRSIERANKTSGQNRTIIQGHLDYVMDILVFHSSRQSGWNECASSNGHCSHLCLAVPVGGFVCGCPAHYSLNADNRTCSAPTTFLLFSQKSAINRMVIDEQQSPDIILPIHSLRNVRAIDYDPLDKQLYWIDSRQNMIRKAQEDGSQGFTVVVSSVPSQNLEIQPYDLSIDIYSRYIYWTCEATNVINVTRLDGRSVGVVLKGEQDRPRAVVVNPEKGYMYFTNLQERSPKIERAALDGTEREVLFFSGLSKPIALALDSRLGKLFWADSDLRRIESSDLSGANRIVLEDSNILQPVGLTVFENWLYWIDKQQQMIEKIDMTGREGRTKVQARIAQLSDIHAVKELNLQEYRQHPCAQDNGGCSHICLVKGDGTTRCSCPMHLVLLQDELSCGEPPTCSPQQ

T5: human LRP6 construct E3E4 (amino acids E631-Q1253) (human, UniProt O75581 631-1253, biotinylated for biolayer interferometry)
T5 construct: range 631-1253; also called LRP6 E3E4
T5 sequence (looked up): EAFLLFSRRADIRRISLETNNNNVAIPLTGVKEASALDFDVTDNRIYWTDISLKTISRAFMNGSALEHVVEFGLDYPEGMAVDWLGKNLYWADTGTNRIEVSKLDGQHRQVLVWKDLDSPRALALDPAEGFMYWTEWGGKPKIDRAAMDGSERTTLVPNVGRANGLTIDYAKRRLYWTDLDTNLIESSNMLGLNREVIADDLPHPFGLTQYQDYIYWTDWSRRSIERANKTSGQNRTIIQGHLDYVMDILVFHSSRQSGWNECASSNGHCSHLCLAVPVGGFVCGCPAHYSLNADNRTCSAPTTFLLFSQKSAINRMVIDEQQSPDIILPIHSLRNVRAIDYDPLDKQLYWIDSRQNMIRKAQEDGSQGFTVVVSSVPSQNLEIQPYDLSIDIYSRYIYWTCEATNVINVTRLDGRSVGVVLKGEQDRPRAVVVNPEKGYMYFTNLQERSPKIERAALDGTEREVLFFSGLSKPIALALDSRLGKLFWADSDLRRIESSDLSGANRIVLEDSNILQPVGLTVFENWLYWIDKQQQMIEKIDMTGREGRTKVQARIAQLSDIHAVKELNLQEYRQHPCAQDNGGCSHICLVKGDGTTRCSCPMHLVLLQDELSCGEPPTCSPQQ


Key:
[1] = target: T1, human LRP6 construct E1E4 (amino acids …); test: BLI (FIG. 9B)
Method: (§1) Binding kinetics were measured by biolayer interferometry using an Octet Red instrument (ForteBio) as previously described (11). Streptavidin (SA) biosensors were loaded with biotinylated hLRP6 in 50 mMTris, pH 8, 300 mM NaCl, 5% (v/v) glycerol, and 0.05% (w/v) Triton X-100. The loaded biosensors were washed in the same buffer before carrying out association and dissociation measurements for the indicated times. The Kd of each interaction was determined using steady state-analysis through the Octet Red software v6.3. Each reported value represents an average of three or more experiments at different concentrations, with a fitted experimental curve for which the square of the correlation coefficient (R²) is above 0.96.

[2] = target: T2, human LRP6 construct E1E2 (amino acids …); test: BLI (FIG. 9B)
Method: as §1

LRP6 E3E4 = target: T3, LRP6 E3E4; test: Biolayer interferometry binding to LRP6 E3E4
Method: as §1, with “(R^2)” for “(R²)”
(§2) The interaction of the different Dkks and sclerostin with various domains of LRP6 was measured using a biolayer interferometry assay (11). Purified receptors contained individual β-propeller-EGF-like units (E1, E2, or E4), two β-propellers (E1E2 or E3E4), or four β-propellers (E1E4))—as follows:
(§3) Human LRP6: construct E1E4-amino acids A20-Q1253 of LPR6; construct E1E2-amino acids A20-E631 of LPR6; construct E3E4 amino acids E631-Q1253 of LPR6; construct E1-amino acids A20-D325 of LPR6; construct E2-amino acids […]-E631 of LPR6; construct E4-T933-Q1253. The individual LRP6 β-propeller E3 could not be expressed.

LRP6 E1E4 = target: T4, LRP6 E1E4; test: Biolayer interferometry binding to LRP6 E1E4
Method: as §1, with “(R^2)” for “(R²)”
as §2, §3

[3] = target: T2, human LRP6 construct E1E2 (amino acids …); test: BLI (Octet Red), biotinylated LRP6 on streptavidin tips, steady state
Method: as §1

[4] = target: T5, human LRP6 construct E3E4 (amino acids …); test: as above
Method: as §1

binding result [1]	binding result [2]	binding to LRP6 E1E4 (in words) (LRP6 E1E4)	Kd [3] [nM]	Kd [4] [nM]	Molecule	binding to LRP6 E3E4 (in words) (LRP6 E3E4)
binds	binds	retain binding			Dkk1 H204E (ligand, human, UniProt O94907 32-266, looked up) TLNSVLNSNAIKNLPPPLGGAAGHPGSAVSAAPGILYPGGNKYQTIDNYQPYPCAEDEECGTDEYCASPTRGGDAGVQICLACRKRRKRCMRHAMCCPGNYCKNGICVSSDQNHFRGEIEETITESFGNDHSTLDGYSRRTTLSSKMYHTKGQEGSVCLRSSDCASGLCCAREFWSKICKPVLKEGQVCTKHRRKGSHGLEIFQRCYCGEGLSCRIQKDHHQASNSSRLHTCQRH	interfered with binding; also recorded: affect binding
			53	38	Dkk2 (ligand) KLNSIKSSLGGETPAQSANRSAGMNQGLAFGGSKKGKSLGQAYPCSSDKECEVGRYCHSPHQGSSACMLCRRKKKRCHRDGMCCPGTRCNNGICIPVTESILTPHIPALDGTRHRDRNHGHYSNHDLGWQNLGRPHSKMPHIKGHEGDPCLRSSDCIDGFCCARHFWTKICKPVLHQGEVCTKQRKKGSHGLEIFQRCDCAKGLSCKVWKDATYSSKARLHVCQKI	
